This is an account of results in patent US20220048996A1 (F STAR BETA, published 2022).

For experiment [1], the target named is T1, mouse CD137 expressed on DO11.10 cells (DO11.10-mCD137) (mouse, UniProt P20334 24-256).
T1 construct: also called CD137 on mouse T cells
In words: flow cytometry on DO11.10 cells expressing the target. On the procedure:
(§1) The binding affinity of the FS20m-232-91AA/Lob12.3 mAb² for cell-expressed mouse OX40 and CD137 was determined using flow cytometry. […] DO11.10-mOX40, DO11.10-mCD137, or HEK cell suspensions were prepared in PBS+2% BSA (Sigma, A7906) and seeded at 4×10⁶ cell/ml with 50 μl/well in V-bottomed 96-well plates (Costar, 3897). 50 μl of the antibody dilutions were added to the wells containing cells (final volume 100 μl ) and incubated at 4° C. for 1 hour. […] The plates were washed and resuspended in 100 μl of PBS containing DAPI (Biotium, cat no 40043) at 1 μg/ml. The plates were analysed using a Canto II flow cytometer (BD Bioscience) and the data analysed using FlowJo. Dead cells were identified by their higher fluorescence on the UV (405 nm/450/50) channel and excluded from analysis. […] The GMFI data was fit using log (agonist) vs response (three parameters) in GraphPad Prism Software to generate EC₅₀ values.
For orientation: A flow cytometer gives signals particle by particle.

The target in another experiment is T2, hCD137-mFc-Avi (human).
T2 construct: Dimer; a biotinylated version was used where the text says so; also called human CD137-mFc-Avi; hCD137-mFc-Avi-Bio
In words: SPR, mAb^2 at 1 nM on CD137 against 1 µM on related receptors. The text has this: CD137 and OX40 belongs to the tumour necrosis factor receptor superfamily (TNFRSF) of cytokine receptors (Moran et al., 2013).
Briefly, flow cells on CM5 chips were immobilised with approx. 1000 RU of either human CD137-mFc-Avi (Table 3), OX40-mFc (Table 2), recombinant human TNFRSF1A-Fc, recombinant human TNFRSF1B-Fc, recombinant human GITR-Fc, recombinant human NGFR-Fc, recombinant human CD40-Fc or recombinant human DR6-Fc. Flow cell 1 was left for blank immobilisation. The five mAb² were diluted to 1 μM and 1 nM in 1×HBS-EP buffer (GE Healthcare, product code BR100188), allowed to flow over the chip for 3 min and then allowed to dissociate for 4 minutes. A 30-second injection of 10 mM glycine pH 1.5 was used for regeneration. […] Binding levels were determined at the end of the association phase and compared.
(SPR reads the build-up and loss of mass on a sensor chip optically.)

For experiment [2], the target named is T3, human CD137 expressed on DO11.10 cells (DO11.10-hCD137) (human, UniProt Q07011 24-255). Briefly: cell-based or functional assay.
Experiment [3] addresses T4, mouse OX40 expressed on DO11.10 cells (DO11.10-mOX40) (mouse, UniProt P47741 20-272).
T4 sequence: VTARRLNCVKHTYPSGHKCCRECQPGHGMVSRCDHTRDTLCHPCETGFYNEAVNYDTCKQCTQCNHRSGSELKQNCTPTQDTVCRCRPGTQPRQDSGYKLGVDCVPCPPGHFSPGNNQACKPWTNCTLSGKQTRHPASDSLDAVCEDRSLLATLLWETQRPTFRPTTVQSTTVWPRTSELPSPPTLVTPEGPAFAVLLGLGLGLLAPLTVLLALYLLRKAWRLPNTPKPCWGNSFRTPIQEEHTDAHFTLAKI
Briefly: cell-based or functional assay.

Experiment [4] concerns the target T5, cynomolgus CD137 expressed on DO11.10 cells (DO11.10-cCD137) (cynomolgus monkey, UniProt Q07011 24-255 (human entry)).
T5 chain: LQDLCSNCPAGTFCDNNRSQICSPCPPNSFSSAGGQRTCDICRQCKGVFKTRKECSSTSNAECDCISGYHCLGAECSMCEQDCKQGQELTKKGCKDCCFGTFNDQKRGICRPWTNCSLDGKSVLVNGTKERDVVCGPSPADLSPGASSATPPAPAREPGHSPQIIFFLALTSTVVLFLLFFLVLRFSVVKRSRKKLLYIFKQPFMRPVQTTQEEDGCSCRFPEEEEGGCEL
Briefly: flow cytometry on DO11.10 cells expressing the target. As to the method:
(§2) 50 μl of the antibody dilutions were added to the wells containing cells (final volume 100 μl) and incubated at 4° C. for 1 hour. […] The plates were washed and resuspended in 100 μl of PBS containing DAPI (Biotium, cat no 40043) at 1 μg/ml. The plates were analysed using a Canto II flow cytometer (BD Bioscience) and the data analysed using FlowJo. Dead cells were identified by their higher fluorescence on the UV (405 nm/450/50) channel and excluded from analysis. […] The GMFI data was fit using log (agonist) vs response (three parameters) in Graph Pad Prism Software to generate EC₅₀ values.

The target in experiment [5] is T3, human CD137 expressed on DO11.10 cells …. Described as above. On the procedure: as §2
Experiment [6] deals with T4, mouse OX40 expressed on DO11.10 cells …. Described as above. On the procedure:
as §1

Numbering of substitutions follows the chain as printed.

T1 sequence (P20334 24-256): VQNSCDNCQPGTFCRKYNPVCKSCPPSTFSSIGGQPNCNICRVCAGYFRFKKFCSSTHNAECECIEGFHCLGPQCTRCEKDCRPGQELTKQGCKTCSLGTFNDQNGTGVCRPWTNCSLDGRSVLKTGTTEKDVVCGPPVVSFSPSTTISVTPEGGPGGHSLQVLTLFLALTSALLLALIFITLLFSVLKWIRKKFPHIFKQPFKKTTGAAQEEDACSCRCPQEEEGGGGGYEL
T2 sequence (chain, as listed by the source limits assumed): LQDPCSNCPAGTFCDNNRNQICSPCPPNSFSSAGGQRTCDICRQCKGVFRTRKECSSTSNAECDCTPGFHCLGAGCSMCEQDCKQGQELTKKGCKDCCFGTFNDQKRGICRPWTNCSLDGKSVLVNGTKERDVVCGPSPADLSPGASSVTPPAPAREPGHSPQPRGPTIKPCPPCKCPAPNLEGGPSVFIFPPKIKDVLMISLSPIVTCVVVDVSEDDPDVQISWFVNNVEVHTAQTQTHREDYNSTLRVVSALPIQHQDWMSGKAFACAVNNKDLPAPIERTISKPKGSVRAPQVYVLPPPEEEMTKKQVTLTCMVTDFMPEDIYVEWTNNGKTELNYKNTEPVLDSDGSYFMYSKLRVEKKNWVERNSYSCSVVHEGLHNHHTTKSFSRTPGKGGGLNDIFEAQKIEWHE

B1: FS20m-232-91AA/HEL D1.3 (antibody, V domains shown)
VH: QVQLQESGPGLVRPSQTLSLTCTVSGSTFSGYGVNWVRQPPGRGLEWIGMIWGDGNTDYNSALKSRVTMLVDTSKNQFSLRLSSVTAADTAVYYCARERDYRLDYWGQGSLVTVSS
VL: DIQMTQSPASLSASVGETVTITCRASGNIHNYLAWYQQKQGKSPQLLVYNAKTLADGVPSRFSGSGSGTQYSLKINSLQPEDFGSYYCQHFWSTPRTFGGGTKLEIKR
notes: also called OX40/HEL mock mAb^2
On to B1, for which the binding result in experiment [1] was “no binding”.

B2: FS20-22-49AA/FS30-35 (bispecific antibody, V domains shown)
VH: EVQLLESGGGLVQPGGSLRLSCAASGFTFSAYNIHWVRQAPGKGLEWVSDISPYGGATNYADSVKGRFTISRDNSKNTLYLQMNSLRAEDTAVYYCARNLYELSAYSYGMDYWGQGTLVTVSS
VL: EIVLTQSPGTLSLSPGERATLSCRASQSVSSSYLAWYQQKPGQAPRLLIYGASSRATGIPDRFSGSGSGTDFTLTISRLEPEDFAVYYCQQYYYSSPITFGQGTKVEIKR
notes: Parent mAb^2; derived by reversing the stated change
For B2, the “specificity for CD137 over TNFRSF1A, TNFRSF1B, GITR, NGFR and CD40 (fold)” value with hCD137-mFc-Avi was around 1000 fold.

B3: G1AA/FS30-10-16 (antibody, human IgG1, kappa, L234A L235A, V domains shown)
VH: EVQLLESGGGLVQPGGSLRLSCAASGFTFSSYDMSWVRQAPGKGLEWVSDIDPTGSKTDYADSVKGRFTISRDNSKNTLYLQMNSLRAEDTAVYYCARDLLVYGFDYWGQGTLVTVSS
VL: EIVLTQSPGTLSLSPGERATLSCRASQSVSSSYLAWYQQKPGQAPRLLIYGASSRATGIPDRFSGSGSGTDFTLTISRLEPEDFAVYYCQQSYSYPVTFGQGTKVEIKR
Consider B3, for which the “CD8+ T cell activation assay, hIL-2 release EC50, crosslinked” value in experiment [2] was 3.88 nM.

B4: FS20-22-49AA/FS30-10 (bispecific antibody, V domains shown)
VH: B3 VH with L101M
VL: B3 VL
notes: as for B2
Regarding B4, the “specificity for CD137 over TNFRSF1A, TNFRSF1B, GITR, NGFR and CD40 (fold)” value with hCD137-mFc-Avi was around 1000 fold.

B5: FS20m-232-91AA/4420 (antibody, human IgG1, kappa, L234A L235A)
heavy: EVKLDETGGGLVQPGRPMKLSCVASGFTFSDYWMNWVRQSPEKGLEWVAQIRNKPYNYETYYSDSVKGRFTISRDDSKSSVYLQMNNLRVEDMGIYYCTGSYYGMDYWGQGTSVTVSSASTKGPSVFPLAPSSKSTSGGTAALGCLVKDYFPEPVTVSWNSGALTSGVHTFPAVLQSSGLYSLSSVVTVPSSSLGTQTYICNVNHKPSNTKVDKKVEPKSCDKTHTCPPCPAPEAAGGPSVFLFPPKPKDTLMISRTPEVTCVVVDVSHEDPEVKFNWYVDGVEVHNAKTKPREEQYNSTYRVVSVLTVLHQDWLNGKEYKCKVSNKALPAPIEKTISKAKGQPREPQVYTLPPSRDELFDPMYYYNQVSLTCLVKGFYPSDIAVEWESNGEPLWDYKTTPPVLDSDGSFFLYSKLTVWRDRWEDGNVFSCSVMHEALHNHYTQKSLSLSPGK
light: DVVMTQTPLSLPVSLGDQASISCRSSQSLVHSNGNTYLRWYLQKPGQSPKVLIYKVSNRFSGVPDRFSGSGSGTDFTLKISRVEAEDLGVYFCSQSTHVPWTFGGGTKLEIKRTVAAPSVFIFPPSDEQLKSGTASVVCLLNNFYPREAKVQWKVDNALQSGNSQESVTEQDSKDSTYSLSSTLTLSKADYEKHKVYACEVTHQGLSSPVTKSFNRGEC
For the molecule B5, the “mouse pan-T cell activation assay, mIL-2 release EC50, crosslinked” value in experiment [3] was 0.257 nM.

B6: G1/4420 (antibody, human IgG1, kappa)
heavy: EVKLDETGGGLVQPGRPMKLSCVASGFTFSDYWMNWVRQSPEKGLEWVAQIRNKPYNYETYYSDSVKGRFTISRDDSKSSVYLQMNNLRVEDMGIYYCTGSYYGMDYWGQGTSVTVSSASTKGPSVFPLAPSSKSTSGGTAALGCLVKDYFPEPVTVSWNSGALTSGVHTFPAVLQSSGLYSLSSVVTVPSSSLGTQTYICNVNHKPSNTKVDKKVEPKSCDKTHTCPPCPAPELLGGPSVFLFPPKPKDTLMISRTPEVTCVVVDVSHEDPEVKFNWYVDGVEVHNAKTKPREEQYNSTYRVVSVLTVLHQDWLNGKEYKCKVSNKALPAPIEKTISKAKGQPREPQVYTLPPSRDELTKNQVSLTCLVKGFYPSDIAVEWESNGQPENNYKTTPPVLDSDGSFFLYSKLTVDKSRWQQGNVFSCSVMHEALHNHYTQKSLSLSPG
light: B5 light
notes: also called anti-FITC antibody 4420 in IgG1 format; isotype control
With B6, the binding result in experiment [4], in experiment [5], in experiment [1] and in experiment [6] was “no binding” in each case.

B7: G1AA/OX86 (antibody, human IgG1, kappa, L234A L235A, V domains shown)
VH: QVQLKESGPGLVQPSQTLSLTCTVSGFSLTGYNLHWVRQPPGKGLEWMGRMRYDGDTYYNSVLKSRLSISRDTSKNQVFLKMNSLQTDDTAIYYCTRDGRGDSFDYWGQGVMVTVSS
VL: DIVMTQGALPNPVPSGESASITCRSSQSLVYKDGQTYLNWFLQRPGQSPQLLTYWMSTRASGVSDRFSGSGSGTYFTLKISRVRAEDAGVYYCQQVREYPFTFGSGTKLEIKR
As to B7, the “mouse pan-T cell activation assay, mIL-2 release EC50, crosslinked” value in experiment [3] turned out to be 2.41 nM.

B8: G1/OX86 (antibody, human IgG1, kappa, V domains shown)
VH: B7 VH with T57I
VL: B7 VL
notes: also called G1/0X86; anti-mouse OX40 mAb OX86 in a human IgG1 backbone
Regarding B8, the binding result in experiment [1] is “no binding”. The same molecule showed an EC50 in experiment [6] of 0.538 nM.

The term EC50 denotes the concentration that produces a half-maximal response. The low end stands for greater potency, the high end for weaker potency.
